Assay results taken from patent US20250066503A1, “CELL INJURY INDUCING THERAPEUTIC DRUG FOR USE IN CANCER THERAPY” (CHUGAI SEIYAKU KABUSHIKI KAISHA, priority 2016, published 2025).
Numbering of substitutions follows the chain as printed.

B1: TR01H067-E22Hh/none-Hi-Kn010G3/L0200-k0 (antibody, V domains shown)
VH: QVQLVESGGGLVQPGRSLRLSCAASGFTFSNAWMHWVRQAPGKGLEWVAQIKDKSQNYATYYAESVKGRFTISRDDSKNSLYLQMNSLKTEDTAVYYCRYVHYAASYGVDAWGQGTTVTVSS
VL: DIVMTQSPLSLPVTPGEPASISCRPSQSPVHSNRNTYLHWYQQKPGQAPRLLIYKVSNRFSGVPDRFSGSGSGTDFTLKISRVEAEDVGVYYCGQGTQVPYTFGQGTKLEIK
notes: one-arm
B2: TR01H062-E22Hh/none-Hi-Kn010G3/L0000-k0 (antibody, V domains shown)
VH: B1 VH with D75A, L81I
VL: DIVMTQSPLSLPVTPGEPASISCRSSQSLVHSNRNTYLHWYQQKPGQAPRLLIYKVSNRFSGVPDRFSGSGSGTDFTLKISRVEAEDVGVYYCGQGTQVPYTFGQGTKLEIKR
notes: one-arm
B3: TR01H067-E22Hh/none-Hi-Kn010G3/TR01L016-k0 (antibody, V domains shown)
VH: B1 VH
VL: B1 VL with P25S, Q42L, A48S, R50Q, G94Y
notes: one-arm
B4: TR01H082-E22Hh/none-Hi-Kn010G3/L0259-k0 (antibody, V domains shown)
VH: B1 VH with S106G
VL: B1 VL with P25S, L38I, G94T
notes: one-arm
B5: TR01H084-E22Hh/none-Hi-Kn010G3/L0262-k0 (antibody, V domains shown)
VH: B1 VH with L11V, R16G, D75A, L81I, S106G, A111I
VL: B1 VL with P25S, S28P, G94A
notes: one-arm
B6: TR01H084-E22Hh/none-Hi-Kn010G3/L0270-k0 (antibody, V domains shown)
VH: B1 VH with L11V, R16G, D75A, L81I, S106G, A111I
VL: B1 VL with P25S, P29L, N35Q
notes: one-arm
B7: CE115HA121-E22Hh/-Hi-Kn010G3/L0000-k0 (antibody, V domains shown)
VH: B1 VH with L11V, Q50L, D53A, Q56N, A104G, S106Y
VL: B2 VL
notes: one-arm
B8: TR01H082-E22Hh/none-Hi-Kn010G3/TR01L018-k0 (antibody, V domains shown)
VH: B1 VH with S106G
VL: B1 VL with R24Q, P25A, Q27E, Q42L, A48S, R50Q
notes: one-arm
B9: TR01H082-E22Hh/none-Hi-Kn010G3/L0258-k0 (antibody, V domains shown)
VH: B1 VH with S106G
VL: B1 VL with P25S, S28P, G94T
notes: one-arm
B10: TR01H082-E22Hh/none-Hi-Kn010G3/L0263-k0 (antibody, V domains shown)
VH: B1 VH with S106G
VL: B1 VL with P25S, L38I, G94A
notes: one-arm
B11: TR01H009-E22Hh/none-Hi-Kn010G3/L0000-k0 (antibody, V domains shown)
VH: B1 VH with D53A, Q56N, E64P, D75A, L81I, A104G, S106Y, A111I
VL: B2 VL
notes: one-arm
B12: TR01H082-E22Hh/none-Hi-Kn010G3/L0271-k0 (antibody, V domains shown)
VH: B1 VH with S106G
VL: B1 VL with P25S, S28P, N35Q
notes: one-arm
B13: CE115HA177-G1dh//-Hi-Kn010G3/L0000-k0 (antibody, V domains shown)
VH: B1 VH with D53A, Q56N, D75A, L81I, A104G, S106Y
VL: B2 VL
notes: one-arm
B14: TR01H067-E22Hh/none-Hi-Kn010G3/TR01L018-k0 (antibody, V domains shown)
VH: B1 VH
VL: B1 VL with R24Q, P25A, Q27E, Q42L, A48S, R50Q
notes: one-arm
B15: TR01H071-E22Hh/none-Hi-Kn010G3/L0226-k0 (antibody, V domains shown)
VH: B1 VH with Q56N, D75A, L81I, A111I
VL: B1 VL with P25S, L38I, G94I
notes: one-arm
B16: CE115HA180-G1dh//-Hi-Kn010G3/L0000-k0 (antibody, V domains shown)
VH: B1 VH with L11V, D53A, Q56N, D75A, A104G, S106Y, D110Q
VL: B2 VL
notes: one-arm
B17: TR01H083-E22Hh/none-Hi-Kn010G3/L0262-k0 (antibody, V domains shown)
VH: B1 VH with Q56N, D75A, L81I, S106G, A111I
VL: B1 VL with P25S, S28P, G94A
notes: one-arm
B18: CE115HA124-E22Hh//-Hi-Kn010G3/L0000-k0 (antibody, V domains shown)
VH: B1 VH with L11V, D53A, K54L, Q56N, A104G, S106Y
VL: B2 VL
notes: one-arm
B19: TR01H071-E22Hh/none-Hi-Kn010G3/L0200-k0 (antibody, V domains shown)
VH: B1 VH with Q56N, D75A, L81I, A111I
VL: B1 VL
notes: one-arm
B20: CE115HA192-E22Hh//-Hi-Kn010G3/L0000-k0 (antibody, V domains shown)
VH: B1 VH with L11V, D53A, Q56N, A104Y, S106Y
VL: B2 VL
notes: one-arm
B21: TR01H082-E22Hh/none-Hi-Kn010G3/L0270-k0 (antibody, V domains shown)
VH: B1 VH with S106G
VL: B1 VL with P25S, P29L, N35Q
notes: one-arm
B22: TR01H084-E22Hh/none-Hi-Kn010G3/L0272-k0 (antibody, V domains shown)
VH: B1 VH with L11V, R16G, D75A, L81I, S106G, A111I
VL: B1 VL with P25S, S28P, P29L, N35Q
notes: one-arm
B23: TR01H084-E22Hh/none-Hi-Kn010G3/L0271-k0 (antibody, V domains shown)
VH: B1 VH with L11V, R16G, D75A, L81I, S106G, A111I
VL: B1 VL with P25S, S28P, N35Q
notes: one-arm
B24: TR01H007-E22Hh/none-Hi-Kn010G3/L0000-k0 (antibody, V domains shown)
VH: B1 VH with D53S, Q56N, D75A, L81I, A104G, S106Y, A111I
VL: B2 VL
notes: one-arm
B25: TR01H008-E22Hh/none-Hi-Kn010G3/L0000-k0 (antibody, V domains shown)
VH: B1 VH with D53G, Q56N, D75A, L81I, A104G, S106Y, A111I
VL: B2 VL
notes: one-arm
B26: TR01H067-E22Hh/none-Hi-Kn010G3/L0226-k0 (antibody, V domains shown)
VH: B1 VH
VL: B1 VL with P25S, L38I, G94I
notes: one-arm
B27: TR01H082-E22Hh/none-Hi-Kn010G3/L0267-k0 (antibody, V domains shown)
VH: B1 VH with S106G
VL: B1 VL with G94V
notes: one-arm
B28: TR01H082-E22Hh/none-Hi-Kn010G3/L0260-k0 (antibody, V domains shown)
VH: B1 VH with S106G
VL: B1 VL with G94T
notes: one-arm
B29: TR01H006-E22Hh/none-Hi-Kn010G3/L0000-k0 (antibody, V domains shown)
VH: B1 VH with D53A, D75A, L81I, A104G, S106Y, A111I
VL: B2 VL
notes: one-arm
B30: TR01H082-E22Hh/none-Hi-Kn010G3/TR01L017-k0 (antibody, V domains shown)
VH: B1 VH with S106G
VL: B1 VL with P25S, L38I, H39Q, Q42L, A48S, R50Q, G94Y
notes: one-arm
B31: CE115HA179-G1dh//-Hi-Kn010G3/L0000-k0 (antibody, V domains shown)
VH: B1 VH with D53A, Q56N, D75A, L81I, A104G, S106Y, D110Q
VL: B2 VL
notes: one-arm
B32: CE115HA252-E22Hh//-Hi-Kn010G3/L0000-k0 (antibody, V domains shown)
VH: B1 VH with L11V, D53A, Q56N, A59K, T60K, A104Y, A105Y, S106Y
VL: B2 VL
notes: one-arm
B33: TR01H082-E22Hh/none-Hi-Kn010G3/L0268-k0 (antibody, V domains shown)
VH: B1 VH with S106G
VL: B1 VL with P25S, L38I, H39Q, G94V
notes: one-arm
B34: TR01H067-E22Hh/none-Hi-Kn010G3/L0262-k0 (antibody, V domains shown)
VH: B1 VH
VL: B1 VL with P25S, S28P, G94A
notes: one-arm
B35: TR01H071-E22Hh/none-Hi-Kn010G3/L0215-k0 (antibody, V domains shown)
VH: B1 VH with Q56N, D75A, L81I, A111I
VL: B1 VL with P25S, S28P, L38I
notes: one-arm
B36: TR01H010-E22Hh/none-Hi-Kn010G3/L0000-k0 (antibody, V domains shown)
VH: B1 VH with D53A, Q56N, D75A, L81I, A104S, S106Y, A111I
VL: B2 VL
notes: one-arm
B37: TR01H067-E22Hh/none-Hi-Kn010G3/L0248-k0 (antibody, V domains shown)
VH: B1 VH
VL: B1 VL with L38I, H39Q, G94Y
notes: one-arm
B38: TR01H082-E22Hh/none-Hi-Kn010G3/L0272-k0 (antibody, V domains shown)
VH: B1 VH with S106G
VL: B1 VL with P25S, S28P, P29L, N35Q
notes: one-arm
B39: TR01H067-E22Hh/none-Hi-Kn010G3/TR01L015-k0 (antibody, V domains shown)
VH: B1 VH
VL: B1 VL with P25S, Q42L, A48S, R50Q
notes: one-arm
B40: CE115HA178-G1dh//-Hi-Kn010G3/L0000-k0 (antibody, V domains shown)
VH: B1 VH with D53A, Q56N, L81I, A104G, S106Y, D110Q
VL: B2 VL
notes: one-arm
B41: TR01H082-E22Hh/none-Hi-Kn010G3/L0266-k0 (antibody, V domains shown)
VH: B1 VH with S106G
VL: B1 VL with P25S, S28P, G94V
notes: one-arm
B42: TR01H004-E22Hh//-Hi-Kn010G3/L0000-k0 (antibody, V domains shown)
VH: B1 VH with L11V, D53A, Q56N, Y100R, A104Y, A105Y, S106Y
VL: B2 VL
notes: one-arm; also called TR01H004-E22Hh//-Hi-Kn010G3/10000-ko
B43: TR01H003-E22Hh//-Hi-Kn010G3/L0000-k0 (antibody, V domains shown)
VH: B1 VH with L11V, D53A, Q56N, Y100R, A104G, S106Y
VL: B2 VL
notes: one-arm
B44: TR01H082-E22Hh/none-Hi-Kn010G3/TR01L023-k0 (antibody, V domains shown)
VH: B1 VH with S106G
VL: B1 VL with P25S, Q42L, A48S, R50Q, G94T
notes: one-arm
B45: TR01H082-E22Hh/none-Hi-Kn010G3/L0262-k0 (antibody, V domains shown)
VH: B1 VH with S106G
VL: B1 VL with P25S, S28P, G94A
notes: one-arm
B46: TR01H067-E22Hh/none-Hi-Kn010G3/L0215-k0 (antibody, V domains shown)
VH: B1 VH
VL: B1 VL with P25S, S28P, L38I
notes: one-arm
B47: TR01H082-E22Hh/none-Hi-Kn010G3/L0264-k0 (antibody, V domains shown)
VH: B1 VH with S106G
VL: B1 VL with G94A
notes: one-arm
B48: TR01H081-E22Hh/none-Hi-Kn010G3/L0262-k0 (antibody, V domains shown)
VH: B1 VH with D75A, L81I, S106G, A111I
VL: B1 VL with P25S, S28P, G94A
notes: one-arm

Target: T1, soluble human CD3 epsilon chain (human, UniProt P07766 23-126)
T1 construct: also called CD3ε
T1 sequence (P07766 23-126 limits assumed): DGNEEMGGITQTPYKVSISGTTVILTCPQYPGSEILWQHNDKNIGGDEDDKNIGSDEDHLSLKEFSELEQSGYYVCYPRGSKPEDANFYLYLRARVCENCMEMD
Experiment: SPR

Row | Binder | Kd [nM]
1 | B1 | 60.3
2 | B2 | 31.3
3 | B3 | 10.9
4 | B4 | 50.7
5 | B5 | 8.51
6 | B6 | 27.6
7 | B7 | 67.6
8 | B8 | 47.2
9 | B9 | 47
10 | B10 | 30.9
11 | B11 | 31.5
12 | B12 | 68.2
13 | B13 | 35.5
14 | B14 | 52.6
15 | B15 | 25.1
16 | B16 | 16.8
17 | B17 | 2.45
18 | B18 | 143
19 | B19 | 6.13
20 | B20 | 50.5
21 | B21 | 74.2
22 | B22 | 31
23 | B23 | 27.6
24 | B24 | 21.7

Row | Binder | Kd [nM]
25 | B25 | 42.2
26 | B26 | 132
27 | B27 | 22.9
28 | B28 | 45.3
29 | B29 | 23
30 | B30 | 109
31 | B31 | 8.35
32 | B32 | 9.48
33 | B33 | 136
34 | B34 | 49.2
35 | B35 | 9.51
36 | B36 | 37.3
37 | B37 | 139
38 | B38 | 74.4
39 | B39 | 86.4
40 | B40 | 10.9
41 | B41 | 22.9
42 | B42 | 135
43 | B43 | 40.3
44 | B44 | 42.5
45 | B45 | 39.8
46 | B46 | 74.1
47 | B47 | 34.4
48 | B48 | 5.76
